Experimental data taken from patent US11912755B2, “Endostatin fragments and variants for use in treating fibrosis” (iBio, Inc., priority 2015, dated 2024).

Tests used:
[1] = tested on: human primary lung fibroblasts; assay: Western blot of FN, Col1α1 and α-SMA in primary lung fibroblasts; format: cell-based; conditions: normal human lung fibroblasts; TGF-β 24 h, then 5 μg/ml for 48 h
Procedure: Primary Fibroblast Culture. Human primary lung and skin fibroblasts were cultured. The explanted lungs of normal organ donors, patients with SSc or IPF, and clinically involved skin of SSc patients, a morphea patient and healthy donors were used for primary fibroblast culture. Approximately 2-cm pieces of peripheral lung and skin were minced and fibroblasts were cultured in Dulbecco's modified Eagle's medium (DMEM; Mediatech, Herndon, Va.) supplemented with 10% FBS, penicillin, streptomycin, and anti-mycotic agent, as previously described (Feghali et al., Arthritis Rheum 1999; 42:1451-7). All the cells were used between passages 3-6.
Western Blot Analysis. Cellular lysates were obtained from cultured fibroblasts as previously described (Pilewski et al., Am J Pathol 2005; 166:399-407). Briefly, 2.0×10^5 primary fibroblasts were cultured in 35-mm wells in 0.5% FBS-containing medium supplemented with 10 ng/ml of human recombinant TGF-β or PBS as vehicle control for 24 h, […] In some experiments, endostatin peptides were used without TGF-β stimulation. Cellular lysates were analyzed by Western blot. Signals were detected following incubation with horseradish peroxidase-conjugated secondary antibody and chemiluminescence (Perkin Elmer Life Sciences, Inc., Boston, Mass.). The intensity of individual bands with expected molecular sizes was semi-quantitatively analyzed using the image/J® software available at on the Internet (/rsb.info.nih.gov/ij/index.html), and normalized to individual GAPDH intensity.

[2] = tested on: TGF-β-induced dermal fibrosis in mouse skin; assay: In vivo TGF-β-induced dermal fibrosis in mouse skin; conditions: 10 μg/ml intradermal with TGF-β 10 ng/ml; one week
Procedure: In Vivo Mouse Experiments. CB57BL6/J male mice were purchased from The Jackson Laboratory (Bar Harbor, ME). Human rE (10 μg/ml) or Endostatin peptides (10 μg/ml) in combination with TGF-β (10 ng/ml), or TGF-β alone were injected intradermally on the back of mice in a total volume of 100 μl 1×PBS. Mice were injected in two different skin sites and sacrificed one week post-injection. Skin surrounding the injection site was harvested and fixed in 10% formalin prior to embedding in paraffin.
Measurement of Skin Dermal Thickness. Six μm sections of paraffin-embedded human and mouse skin tissues were stained with hematoxylin and eosin (H&E). In some experiments, sections were stained with Masson trichrome which identifies collagens. Images were taken on a Nikon Eclipse 800 microscope. The thickness of the dermis was measured in 6 random fields of each section using the image/J® software. Data are shown in arbitrary units.
E4, a peptide representing the carboxy terminus of human endostatin, can attenuate fibrosis triggered by multiple fibrogenic factors. The anti-fibrotic effects of E4 can be detected whether administered concomitantly with or following the fibrogenic trigger. The efficacy of E4 was confirmed in […] pre-clinical models of fibrosis: a) bleomycin-induced dermal fibrosis in vivo in mouse skin, b) TGF-β induced dermal fibrosis in mouse skin, and c) bleomycin-induced pulmonary fibrosis. E4 peptide or a control peptide (E1; representing the amino terminal region of endostatin) were administered at the same time as TGF-β or bleomycin or 3-4 days following TGF-β or bleomycin. Mice were sacrificed one and two weeks after TGF-β-initiation of dermal fibrosis, and two and three weeks after bleomycin-induced pulmonary fibrosis. Two different modes of administration of the E4 peptide were also tested. It was confirmed that intraperitoneal and intratracheal administration was effective. The amount of E4 that was administered was 10 μg/ml in a total volume of 100 μl for skin and IP injections and 50 μl for IT administration.
For these studies, fibrosis was assessed by measurement of dermal thickness on H&E skin sections (skin), assessment of collagen levels by Masson Trichrome staining (skin and lung), and measurement of collagen levels by Sircol assay (lung). Furthermore, to confirm the mechanism by which E4 exerts its anti-fibrotic effects, the production of extra-cellular matrix (ECM) components, the levels of enzymes that promote matrix stabilization and thus accumulation and levels of those that degrade ECM components, and levels of transcription factors downstream of the pro-fibrotic triggers were evaluated. Results were assessed using the unpaired t test and the 3-way ANOVA (for the ID1 data).

[3] = Solubility of Ig Fc fusions to E3 in plant lysates; format: physicochemical; conditions: plant lysate, non-denaturing (normal) grind buffer
From the text: For IgG Fc expression, clarified plant lysates were run on a Western blot (Genway chicken E3 antibody). Fusions included E3 (C67A) linked to either the N-terminus of the hinge+Fc domains of IgG2, IgG3, or IgG4, or to the C-terminus of the hinge +Fc domain of IgG1. […] The E3-IgG1 fusion expressed well. The non-reducing samples all appeared to form large structures, although perhaps not as large as the END-55 (iBioCFB03) BMW multimers (FIG. 24).
For IgA/M expression, clarified plant lysates were ground in either denaturing (total) or non-denaturing buffer (soluble) and run on a Western blot (Genway chicken E3 antibody). Fusions contained E3 (C67A) linked to the N-terminus of the hinge+Fc domains of IgA1, IgA2, or IgM. The IgA1 and IgA2 fusions were insoluble in normal grind buffer. The IgM fusion had very low expression. J-chain co-expression had no obvious effect.

[4] = tested on: bleomycin-induced pulmonary fibrosis; assay: Bleomycin mouse model of pulmonary fibrosis, plant-made E3 variants oral or IV; format: in vivo; conditions: oral treatment
From the text: Peptides were expressed in plants using the IBIOLAUNCH™ gene expression platform. C57BL/6 mice were given bleomycin intratracheally in conjunction with END-55 (also referred to herein as E3-Fc (C67A) and CFB03) intravenous (IV) administration, or followed by IV administration of END-55 eight days after bleomycin. The mice were sacrificed at day 12 and lung samples were taken for both hematoxylin and eosin (H&E) staining and hydroxyproline assay.
Pulmonary fibrosis was induced in mice using bleomycin. Animals were treated orally with E3 variants or phosphate buffered saline (PBS). Lung histology was examined, showing that orally delivered E3 variants (E3-6His-KDEL (SEQ ID NO:19) and Expanded E3-6His-KDEL(SEQ ID NO:19)) prevented bleomycin-induced pulmonary fibrosis.
For the experiments shown in FIGS. 21 and 22, pulmonary fibrosis was again induced in mice using bleomycin. […] Hydroxyproline content was measured in the lung.
To evaluate tissue fibrosis/collagen deposition, a hydroxyproline quantification assay was performed. […] Aliquots were transferred to 96-well plates, and absorbance was measured at 570 nm. Collagen content was calculated by comparison with a standard curve generated with cis-4 hydroxy-L-proline (Sigma-Aldrich), using the conversion factor of 1 μg hydroxyproline corresponding to 6.94 μg. […]

**Q.** Which “FN and Col1α1 levels” value [1] does the source give for “E1: synthetic peptide, amino acids 1-45 of SEQ ID NO: 2 (human endostatin) (HSHRDFQPVLHLVALNSPLSGGMRGIRGADFQCFQQARAVGLAGT; listed as Homo sapiens)” here?
**A.** no effect

**Q.** What about the “TGF-β-induced dermal fibrosis (dermal thickness)” value [2] of the same molecule?
**A.** did not alter

**Q.** For “IgG1_Fc-E3_C67A: SEQ ID NO: 29, C-terminal fusion of E3 C67A to IgG1 Fc”, which solubility [3] is on record?
**A.** soluble

**Q.** For “E2: synthetic peptide, amino acids 71-115 of SEQ ID NO: 2 (IVNLKDELLFPSWEALFSGSEGPLKPGARIFSFNGKDVLTHPTWP; listed as Homo sapiens)”, which “TGF-β-induced dermal fibrosis (dermal thickness)” value [2] is on record?
**A.** significantly reduced

B1: Expanded E3-6His-KDEL: SEQ ID NO:17; E3 extended by 17 amino acids from Collagen XVIII, S→Y, C67A, ASK, 6X His KDEL (protein)
chain: MGKMASLFATFLVVLVSLSLASESSAQKSVWHGSDPNGRRLTESYCETWRTEAPSATGQAYSLLGGRLLGQSAASCHHAYIVLAIENSFMTASKHHHHHHKDEL
modifications: amino acid sequence including a secretory sequence, a portion of collagen XVIII, a portion of human endostatin having a C67A mutation, and a peptide tag
notes: E3 extended by 17 amino acids from Collagen XVIII, S→Y, C67A, ASK, 6X His KDEL
**Q.** With B1 as the molecule, how does the “bleomycin-induced pulmonary fibrosis, lung histology” value [4] read?
**A.** prevented

B2: E3_C67A-Fc_IgA2: SEQ ID NO: 26 (protein)
chain: MGKMASLFATFLVVLVSLSLASESSASYCETWRTEAPSATGQASSLLGGRLLGQSAASCHHAYIVLAIENSFMTVPCPVPPPPPCCHPRLSLHRPALEDLLLGSEANLTCTLTGLRDASGATFTWTPSSGKSAVQGPPERDLCGCYSVSSVLPGCAQPWNHGETFTCTAAHPELKTPLTANITKSGNTFRPEVHLLPPPSEELALNELVTLTCLARGFSPKDVLVRWLQGSQELPREKYLTWASRQEPSQGTTTFAVTSILRVAAEDWKKGDTFSCMVGHEALPLAFTQKTIDRMAGKPTHVNVSVVMAEVDGTCY
modifications: E3_C67A-Fc_IgA2 fusion
**Q.** Which solubility [3] does the source give for B2 here?
**A.** insoluble

B3: E3_C67A-Fc_IgA1: SEQ ID NO: 25 (protein)
chain: MGKMASLFATFLVVLVSLSLASESSASYCETWRTEAPSATGQASSLLGGRLLGQSAASCHHAYIVLAIENSFMTVPCPVPSTPPTPSPSTPPTPSPSCCHPRLSLHRPALEDLLLGSEANLTCTLTGLRDASGVTFTWTPSSGKSAVQGPPERDLCGCYSVSSVLPGCAEPWNHGKTFTCTAAYPESKTPLTATLSKSGNTFRPEVHLLPPPSEELALNELVTLTCLARGFSPKDVLVRWLQGSQELPREKYLTWASRQEPSQGTTTFAVTSILRVAAEDWKKGDTFSCMVGHEALPLAFTQKTIDRLAGKPTHVNVSVVMAEVDGTCY
modifications: E3_C67A-Fc_IgA1 fusion
**Q.** With B3 as the molecule, how does the solubility [3] read?
**A.** insoluble

B4: E3_C67A-Fc_IgG3: SEQ ID NO: 23 (protein)
chain: MGKMASLFATFLVVLVSLSLASESSASYCETWRTEAPSATGQASSLLGGRLLGQSAASCHHAYIVLAIENSFMTELKTPLGDTTHTCPRCPEPKSCDTPPPCPRCPEPKSCDTPPPCPRCPEPKSCDTPPPCPRCPAPELLGGPSVFLFPPKPKDTLMISRTPEVTCVVVDVSHEDPEVQFKWYVDGVEVHNAKTKPREEQYNSTFRVVSVLTVLHQDWLNGKEYKCKVSNKALPAPIEKTISKTKGQPREPQVYTLPPSREEMTKNQVSLTCLVKGFYPSDIAVEWESSGQPENNYNTTPPMLDSDGSFFLYSKLTVDKSRWQQGNIFSCSVMHEALHNRFTQKSLSLSPGK
modifications: E3_C67A-Fc_IgG3 fusion
**Q.** With B4 as the molecule, how does the solubility [3] read?
**A.** soluble

B5: E3-6His-KDEL: SEQ ID NO:15; secretory leader peptide, E3, tagged with 6X His and KDEL sequence; plant-made (protein)
chain: MGKMASLFATFLVVLVSLSLASESSASYCETWRTEAPSATGQASSLLGGRLLGQSAASCHHAYIVLCIENSFMTHHHHHHKDEL
modifications: amino acid sequence including a secretory sequence, a portion of human endostatin, and a peptide tag
notes: plant-made
**Q.** Which “bleomycin-induced pulmonary fibrosis, lung histology” value [4] does the source give for B5 here?
**A.** prevented
